Source: US10072073

Assays:
CD55 [1] = target: CD55 (UniProt P08174); test: indirect immunofluorescence flow cytometry on C170 colorectal tumour cells, mAb 5 µg/ml
CD55 [2] = target: CD55 (UniProt P08174); test: indirect immunofluorescence flow cytometry on HT29 colorectal tumour cells, mAb 5 µg/ml
CD55 [3] = target: CD55 (UniProt P08174); test: indirect immunofluorescence flow cytometry on MB-MDA-231 breast tumour cells, mAb 5 µg/ml
CD55 [4] = target: CD55 (UniProt P08174); test: indirect immunofluorescence flow cytometry on AGS gastric tumour cells, mAb 5 µg/ml
CD55 [5] = target: CD55 (UniProt P08174); test: indirect immunofluorescence flow cytometry on Colo201 colorectal tumour cells, mAb 5 µg/ml
CD55 [6] = target: CD55 (UniProt P08174); test: indirect immunofluorescence flow cytometry on ST16 gastric tumour cells, mAb 5 µg/ml
CD55 [7] = target: CD55 (UniProt P08174); test: indirect immunofluorescence flow cytometry on MKN45 gastric tumour cells, mAb 5 µg/ml
CD55 [8] = target: CD55 (UniProt P08174); test: indirect immunofluorescence flow cytometry on Colo205 colorectal tumour cells, mAb 5 µg/ml
CD55 [9] = target: CD55 (UniProt P08174); test: indirect immunofluorescence flow cytometry on OAW42 ovarian tumour cells, mAb 5 µg/ml
CD55 [10] = target: CD55 (UniProt P08174); test: indirect immunofluorescence flow cytometry on H69 lung tumour cells, mAb 5 µg/ml
CD55 [11] = target: CD55 (UniProt P08174); test: indirect immunofluorescence flow cytometry on OVCAR4 ovarian tumour cells, mAb 5 µg/ml
CD55 [12] = target: CD55 (UniProt P08174); test: indirect immunofluorescence flow cytometry on OVCAR3 ovarian tumour cells, mAb 5 µg/ml
CD55 [13] = target: CD55 (UniProt P08174); test: indirect immunofluorescence flow cytometry on OVCA433 ovarian tumour cells, mAb 5 µg/ml
CD55 [14] = target: CD55 (UniProt P08174); test: indirect immunofluorescence flow cytometry on Panc1 pancreatic tumour cells, mAb 5 µg/ml
CD55 [15] = target: CD55 (UniProt P08174); test: indirect immunofluorescence flow cytometry on MCF7 breast tumour cells, mAb 5 µg/ml
CD55 [16] = target: CD55 (UniProt P08174); test: indirect immunofluorescence flow cytometry on ASPC1 pancreatic tumour cells, mAb 5 µg/ml
[17] = target: human class I histocompatibility antigens (HLA-A,B,C) (human); test: indirect immunofluorescence flow cytometry on Colo205 cells; mouse IgG at 5 µg/ml [d]
[18] = target: human class I histocompatibility antigens (HLA-A,B,C) (human); test: indirect immunofluorescence flow cytometry on MCF7 breast tumour cells, mAb 1 µg/ml
[19] = target: human class I histocompatibility antigens (HLA-A,B,C) (human); test: indirect immunofluorescence flow cytometry on OVCA433 ovarian tumour cells, mAb 1 µg/ml
[20] = target: human class I histocompatibility antigens (HLA-A,B,C) (human); test: indirect immunofluorescence flow cytometry on ST16 gastric tumour cells, mAb 1 µg/ml
[21] = target: human class I histocompatibility antigens (HLA-A,B,C) (human); test: indirect immunofluorescence flow cytometry on MKN45 gastric tumour cells, mAb 1 µg/ml
[22] = target: human class I histocompatibility antigens (HLA-A,B,C) (human); test: indirect immunofluorescence flow cytometry on ASPC1 pancreatic tumour cells, mAb 1 µg/ml
[23] = target: human class I histocompatibility antigens (HLA-A,B,C) (human); test: indirect immunofluorescence flow cytometry on OAW42 ovarian tumour cells, mAb 1 µg/ml
[24] = target: human class I histocompatibility antigens (HLA-A,B,C) (human); test: indirect immunofluorescence flow cytometry on Panc1 pancreatic tumour cells, mAb 1 µg/ml
[25] = target: human class I histocompatibility antigens (HLA-A,B,C) (human); test: indirect immunofluorescence flow cytometry on MB-MDA-231 breast tumour cells, mAb 1 µg/ml
[26] = target: human class I histocompatibility antigens (HLA-A,B,C) (human); test: indirect immunofluorescence flow cytometry on Colo205 cells; W6/32 at 5 µg/ml [c]
[27] = target: human class I histocompatibility antigens (HLA-A,B,C) (human); test: indirect immunofluorescence flow cytometry on DU4475 breast tumour cells, mAb 1 µg/ml
[28] = target: human class I histocompatibility antigens (HLA-A,B,C) (human); test: indirect immunofluorescence flow cytometry on Colo201 colorectal tumour cells, mAb 1 µg/ml
[29] = target: human class I histocompatibility antigens (HLA-A,B,C) (human); test: indirect immunofluorescence flow cytometry on C170 colorectal tumour cells, mAb 1 µg/ml
[30] = target: human class I histocompatibility antigens (HLA-A,B,C) (human); test: indirect immunofluorescence flow cytometry on HT29 colorectal tumour cells, mAb 1 µg/ml
[31] = target: human class I histocompatibility antigens (HLA-A,B,C) (human); test: indirect immunofluorescence flow cytometry on OVCAR4 ovarian tumour cells, mAb 1 µg/ml
[32] = target: human class I histocompatibility antigens (HLA-A,B,C) (human); test: indirect immunofluorescence flow cytometry on OVCAR3 ovarian tumour cells, mAb 1 µg/ml
[33] = target: human class I histocompatibility antigens (HLA-A,B,C) (human); test: indirect immunofluorescence flow cytometry on Colo205 colorectal tumour cells, mAb 1 µg/ml
[34] = target: human class I histocompatibility antigens (HLA-A,B,C) (human); test: indirect immunofluorescence flow cytometry on H69 lung tumour cells, mAb 1 µg/ml
[35] = target: human class I histocompatibility antigens (HLA-A,B,C) (human); test: indirect immunofluorescence flow cytometry on AGS gastric tumour cells, mAb 1 µg/ml
Polyvalent Le^a-HSA = test: SPR (Biacore X), polyvalent Le^a-HSA coupled to CM5 chip, mAb in flow

Sequence of UniProt P08174 (P08174 35-353 limits assumed): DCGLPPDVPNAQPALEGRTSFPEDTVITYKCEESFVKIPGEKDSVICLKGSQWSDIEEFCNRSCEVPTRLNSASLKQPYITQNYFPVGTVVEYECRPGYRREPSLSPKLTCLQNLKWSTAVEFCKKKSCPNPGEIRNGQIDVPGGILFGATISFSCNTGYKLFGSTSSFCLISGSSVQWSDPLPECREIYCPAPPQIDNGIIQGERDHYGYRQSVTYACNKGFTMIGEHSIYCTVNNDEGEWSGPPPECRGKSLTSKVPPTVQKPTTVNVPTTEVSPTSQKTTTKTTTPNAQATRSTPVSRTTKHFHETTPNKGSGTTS

Question: With 791T/36 (antibody) as the molecule, how does the Gm value (CD55 [1]) read?
Answer: 858 Gm

Question: What about the Gm value (CD55 [2]) of the same molecule?
Answer: 916 Gm

Question: And the Gm value (CD55 [3])?
Answer: 1160 Gm

Question: And the Gm value (CD55 [4])?
Answer: 1880 Gm

Question: What about the Gm value (CD55 [5]) of the same molecule?
Answer: 22.3 Gm

Question: What about the Gm value (CD55 [6]) of the same molecule?
Answer: 903 Gm

Question: And the Gm value (CD55 [7])?
Answer: 231 Gm

Question: What about the Gm value (CD55 [8]) of the same molecule?
Answer: 44.4 Gm

Question: What about the Gm value (CD55 [9]) of the same molecule?
Answer: 401 Gm

Question: What about the Gm value (CD55 [10]) of the same molecule?
Answer: 28.1 Gm

Question: What about the Gm value (CD55 [11]) of the same molecule?
Answer: 328 Gm

Question: What about the Gm value (CD55 [12]) of the same molecule?
Answer: 412 Gm

Question: And the Gm value (CD55 [13])?
Answer: 686 Gm

Question: What about the Gm value (CD55 [14]) of the same molecule?
Answer: 472 Gm

Question: What about the Gm value (CD55 [15]) of the same molecule?
Answer: 461 Gm

Question: And the Gm value (CD55 [16])?
Answer: 7010 Gm

Question: For IgG Isotype control (antibody), which Gm [17] is on record?
Answer: 25.4

Question: Which Gm value [18] does the source give for W6/32 (antibody) here?
Answer: 515 Gm

Question: And the Gm value [19]?
Answer: 6790 Gm

Question: And the Gm value [20]?
Answer: 33.5 Gm

Question: And the Gm value [21]?
Answer: 15.4 Gm

Question: What about the Gm value [22] of the same molecule?
Answer: 1780 Gm

Question: What about the Gm value [23] of the same molecule?
Answer: 318 Gm

Question: And the Gm value [24]?
Answer: 20.1 Gm

Question: What about the Gm value [25] of the same molecule?
Answer: 758 Gm

Question: What about the Gm [26] of the same molecule?
Answer: 2600

Question: And the Gm value [27]?
Answer: 1360 Gm

Question: What about the Gm value [28] of the same molecule?
Answer: 603 Gm

Question: And the Gm value [29]?
Answer: 16.5 Gm

Question: What about the Gm value [30] of the same molecule?
Answer: 1160 Gm

Question: What about the Gm value [31] of the same molecule?
Answer: 16.4 Gm

Question: What about the Gm value [32] of the same molecule?
Answer: 633 Gm

Question: And the Gm value [33]?
Answer: 1300 Gm

Question: And the Gm value [34]?
Answer: 109 Gm

Question: And the Gm value [35]?
Answer: 1560 Gm

B1: FG88.2 mAb (antibody, V domains shown)
VH: EVKLEESGGGLVQPGGSMKLSCAASGFTFSDAWMNWVRQSPEKGLEWVAEIRSKVINPAIYYAESVKERFTILRDDSKSSVYLQMNSLRAEDTGIYYCSRSTMITTRDPSRYFDVWGAGTTVTVSS
VL: DIQMTQSPTSLSASVGETVTITCRTSENIHNFLTWYQQKQGKSPQVLVYNAKTLPDGVPSRFSGSGSGTQYSLKINSLQPEDFGTYYCQHFWSSPWTFGGGTKLEIKR
Question: Which results are given for B1?
Answer: Kd (Polyvalent Le^a-HSA): 0.63 nM; koff (Polyvalent Le^a-HSA): 0.000118 s⁻¹; kon (Polyvalent Le^a-HSA): 190000 M⁻¹ s⁻¹

B2: FG88.7 mAb (antibody, V domains shown)
VH: EVKLEESGGGLVQPGGSMKLSCVASGFTFSDAWMNWVRQSPEKGLEWVAEIRSKAINPAIYYAESVKGRFTILRDDSKSSVYLQMNSLRAEDTGIYYCSRSTMITTRDPSRYFDVWGAGTTVTVSS
VL: DIQMTQSPTSLSASVGETVTITCRTSENIHNFLTWYQQKQGKSPQVLVYNAKTLPDGVPSRFSGSGSETQYSLKINSLQPEDFGTYYCQHFWSSPWTFGGGTKLEIKR
Question: What does the source list for B2?
Answer: Kd (Polyvalent Le^a-HSA): 0.34 nM; koff (Polyvalent Le^a-HSA): 5.8e-05 s⁻¹; kon (Polyvalent Le^a-HSA): 170000 M⁻¹ s⁻¹
